Data on one molecule can be found in patent US20230183336A1 (MODMAB THERAPEUTICS, published 2023).

For the test, the target named is T1, recombinant mouse LRP6-His chimera (mouse, UniProt O88572 20-1370).
T1 construct: extracellular domain; also called ECD of mouse LRP6; not shown: His tag
T1 sequence (looked up): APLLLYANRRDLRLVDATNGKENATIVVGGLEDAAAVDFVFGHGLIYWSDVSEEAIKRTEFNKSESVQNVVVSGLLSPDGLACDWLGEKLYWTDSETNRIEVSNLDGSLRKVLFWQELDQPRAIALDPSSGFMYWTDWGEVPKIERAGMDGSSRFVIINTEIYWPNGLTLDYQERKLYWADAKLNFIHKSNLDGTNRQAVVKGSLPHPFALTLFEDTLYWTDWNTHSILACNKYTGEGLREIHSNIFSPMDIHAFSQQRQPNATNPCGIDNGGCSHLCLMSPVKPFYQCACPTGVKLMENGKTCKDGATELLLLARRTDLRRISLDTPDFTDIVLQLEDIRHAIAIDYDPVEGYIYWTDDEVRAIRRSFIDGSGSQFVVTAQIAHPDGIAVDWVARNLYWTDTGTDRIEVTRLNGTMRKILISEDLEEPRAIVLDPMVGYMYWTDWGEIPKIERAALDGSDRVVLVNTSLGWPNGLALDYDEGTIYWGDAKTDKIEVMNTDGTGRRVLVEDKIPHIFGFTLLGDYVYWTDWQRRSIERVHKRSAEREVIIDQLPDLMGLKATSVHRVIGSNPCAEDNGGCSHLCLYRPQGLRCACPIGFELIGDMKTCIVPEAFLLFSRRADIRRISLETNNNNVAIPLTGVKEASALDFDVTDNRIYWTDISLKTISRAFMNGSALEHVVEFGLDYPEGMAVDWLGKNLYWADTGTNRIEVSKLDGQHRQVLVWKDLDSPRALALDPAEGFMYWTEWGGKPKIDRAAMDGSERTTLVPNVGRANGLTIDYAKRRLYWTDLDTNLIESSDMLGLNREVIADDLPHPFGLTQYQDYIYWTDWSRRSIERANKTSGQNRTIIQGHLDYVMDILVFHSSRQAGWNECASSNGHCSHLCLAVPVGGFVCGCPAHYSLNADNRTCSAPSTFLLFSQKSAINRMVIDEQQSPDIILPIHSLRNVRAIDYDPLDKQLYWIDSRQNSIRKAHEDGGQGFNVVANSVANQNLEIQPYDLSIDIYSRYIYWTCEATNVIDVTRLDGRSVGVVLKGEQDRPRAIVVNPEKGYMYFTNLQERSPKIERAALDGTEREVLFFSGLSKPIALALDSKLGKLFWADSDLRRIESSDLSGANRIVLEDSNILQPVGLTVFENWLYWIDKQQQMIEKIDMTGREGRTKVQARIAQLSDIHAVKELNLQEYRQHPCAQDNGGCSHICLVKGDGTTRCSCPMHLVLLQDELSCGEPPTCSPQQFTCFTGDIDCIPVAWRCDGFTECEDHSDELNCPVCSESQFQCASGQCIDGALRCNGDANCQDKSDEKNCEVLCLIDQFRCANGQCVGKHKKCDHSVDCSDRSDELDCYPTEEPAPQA
In words: single-point ELISA, coated antigen, purified Fab or IgG1, anti-kappa-HRP. As to the method:
FIGS. 1A and 1B show sixteen (16) anti-LRP antibodies. (A) The amino acid sequences of the complementarity determining regions (CDR) of the heavy (H) and the light (L) chains are presented. The antibodies were grouped into unique epitopes as determined by competitive ELISAs. (B) Single-point ELISAs were performed on 96-well Maxisorb immune plates coated with ECD's of mouse LRP5, mouse LRP6 and human LRP6 chimeras. The plates were incubated with the purified Fab or IgG1 at the concentrations indicated followed by incubation with horseradish peroxidase (HRP)-conjugated anti-kappa antibody. The wells were washed eight times followed by incubation with 3,3′,5,5′-tetramethylbenzidine/H₂O₂ peroxidase (TMB) substrate for 5-10 min. The reaction was stopped by adding 1M H₃PO₄ and the absorbance was measured spectrometrically at 450 nm in a microtiter plate reader. FIG. 1A discloses “SSVA” as SEQ ID NO: 34, and “SASSLYS” as SEQ ID NO: 35, as well as SEQ ID NOS 36-49, 51, 44, 2-4, 4, 5-7, 5, 4, 5, 8-10, 4, 52, 55, 11-16, 15, 15, 13, 17-20, 13, 53, 56, 21-23, 22, 24-33, 54, 57, respectively, in order of columns.
The full length IgG1s and the antibody fragments (Fabs) were purified and a single-point ELISA was done to determine the specificity of the antibodies. […] A multipoint competitive ELISA was used to determine the relative affinities of the antibodies to the recombinant antigen.

B1: LRP5-H5 (antibody, V domains shown)
VH: EVQLVESGGGLVQPGGSLRLSCAASGFNLSYSSIHWVRQAPGKGLEWVASISSSYGSTSYADSVKGRFTISADTSKNTAYLQMNSLRAEDTAVYYCARGYWAIDYWGQGTLVTVSS
VL: DIQMTQSPSSLSASVGDRVTITCRASQSVSSAVAWYQQKPGKAPKLLIYSASSLYSGVPSRFSGSRSGTDFTLTISSLQPEDFATYYCQQPVGHYGYPITFGQGTKVEIKR
notes: Fab-phage in the screen
Consider B1, for which the binding result is reported as “binds”.
